Measured values from paper PMC8501884.

Columns and labels:
[1] = target: NTD and CC region of CYK-4 (residues 1 to 120) (C. elegans); experiment: crystal structure
[2] = target: dimerization domain of ZEN-4 (residues 530 to 601) (C. elegans); experiment: crystal structure

Row | stoichiometry N [1] | stoichiometry N [2] | Substance
1 | 2 |  | NTD and CC region of CYK-4 (residues 1 to 120) (domain or fragment)
2 |  | 2 | dimerization domain of ZEN-4 (residues 530 to 601) (domain or fragment)
